Laboratory results taken from the MegaScale stability set (Tsuboyama et al. 2023).

B1: EHEE_rd2_0601 (parent)
chain: TYTYKLTDEEASRRAEDEWRNRGYDVRVRNNNGTWEVEVR
B2: 2M8U (parent)
chain: TKAQVIEAFKVFDRDGNGYVTVDYLRKVLNELGDMMPADEIEEMIYEADPQNSGYVQYETFVGMLFL

Variants of: B1
Experiment: folding stability dG (cDNA display proteolysis); higher = more stable
Details: PBS, room temperature

Folding stability dG [kcal/mol]: each site, then its substitutions
E9: Y 1.58; W 1.26; N 0.05; G 0.631
R13: Q 0.968; I 0.934; K 1.45; A 0.771; E 0.263; Y 0.805; D 0.014; C 0.559
N30: D 1; K 1.34; I 1.35; G 0.639
Y24: W 0.791; K -0.577; H 0.447; N -0.731
T1: M 1.33; A 1.41; I 1.73
W19: N -0.826; A 0.133; Y 0.78
R40: H 1.1; E 0.721; W 1.8; G 0.86; Q 1.09; D 0.685
R27: Q 1.56; C 1.69; D 1.07
L6: W 1.14; M 1.97; K -0.09; V 2.08
E38: F 1.03; I 1.77; L 1.28; S 1.23; M 1.33
R29: T 1.86; K 1.35; P -0.71; A 0.917; L 1.4; H 1.49
S12: Q 0.072; W 0.977; T 1.51; D -0.63; A 3.22; H -0.243
A11: K 0.673; M 1.11; T 1.19; F 0.664
V37: L 1.46; F 0.362; I 1.75
E16: F 1.73; L 1.54
E10: V 1.27; G 1.1; W 1.28; I 1.3; F 1.2
N31: P -0.345; Y 1.4; Q 1.08
A15: I 2.2
G33: D 0.603; R -0.712; F -0.159
Y4: A -0.411; C 1.16; G -0.985; H 0.191; N -0.767; D -0.109; P -0.228
R14: T 0.957; E 1; M 1.2; W 0.994
R20: S 0.589; T 0.945; A 0.541; G 0.028; L 0.904; H 0.444; Q 0.446
T3: H 0.873; F 1.37; E 0.117; P -0.035
V28: K -0.078; S 0.536; G -0.651; W 0.13
E18: D 1.21; N 1.03; C 2.41; M 2.03; W 2.44; T 1.35; A 1.45; Y 3.02; G 0.757
T34: K 0.867; S 1.28; V 2.01
R22: G 0.192; M 1.29; E 0.251; I 0.421; C 1.03; L 1.46; K 1.45
V39: R -0.789
N32: K 0.989; M 1.08; Y 0.605
W35: I 0.328
D17: N 1.78; I 2.17; S 1.88; V 2.08; M 2.11; H 1.68
V26: F -0.688; P -0.384
K5: R 1.56; S 1.58; T 1.95; E 1.31; D 0.851; G 0.688; V 1.97
T7: V 1.63; I 1.62; M 1.78; G 1.69; C 2
G23: K -0.509; W -0.693
D25: S 1.3; L 1.48; N 1.3; K 1.16
N21: K 1.97; W 0.672; S 1.82; F 1.04; Y 0.831
E36: A 0.137; C 1.26; M 1.19; Y 1.98
Y2: S 0.609; V 1.63; D 0.375; Q 1.04; F 1.76; H 1.37
D8: L 0.261; R -0.434; G 0.808; W 0.339; K -0.424; T 1.74; C 1.07

Variants of: B2
Experiment: as above
Details: PBS, room temperature

Folding stability dG [kcal/mol] of substitutions, site by site:
F66: C 2.86; M 2.88; A 2.62; L 2.59; K 2.73; H 2.67; P 2.87; Y 2.71; N 2.92; D 2.96; T 2.83; W 3.19; R 2.78; I 2.84; S 2.72; Q 2.55; V 2.84; G 2.57; E 2.56
F61: M 2.31; Y 2.17; K 1.35; T 1.87; Q 1.17; N 1.32; C 2.13; W 2.62; L 2.65; V 3.46; E 0.86; D 0.727; A 2.41; H 1.1; S 1.33; I 3.6; P 0.783; R 1.29; G 0.903
L65: C 2.6; M 3.67; N 2.26; E 1.82; I 3.11; W 3.25; H 2.65; S 1.7; Q 1.84; R 2.22; A 2.23; F 3.28; D 1.97; P 1.55; T 1.96; Y 3.04; K 1.94; G 2.19; V 2.72
L67: Y 3.08; I 3.3; W 3.08; M 3.46; H 3.62; F 3.22; T 3.3; S 3.6; N 3.67; K 3.57; V 3.28; A 3.98; G 3.49; P 3.9; Q 3.8; C 3.61; E 3.96; D 4.28; R 3.81
V62: C 2.48; D 1.28; S 2.36; P 1.22; Q 1.94; L 2.76; N 1.68; K 1.97; R 1.93; Y 2.11; H 1.7; M 2.67; T 3; E 1.66; I 3.29; G 1.93; A 3.15; F 2.15; W 2.11
G63: C 3.58; A 3.66; I 3.41; M 3.79; Q 3.47; T 3.77; E 4.11; H 3.72; W 3.31; Y 3.48; K 3.45; N 3.97; L 3.36; S 3.63; P 2.16; V 3.42; D 4.19; F 3.29; R 3.54
M64: T 3.29; F 3.34; V 3.03; I 3.15; K 4.14; W 3.59; Q 3.53; E 3.29; G 3.04; A 3.21; H 3.69; N 3.83; D 3.23; P 2.66; S 3.08; R 4.29; Y 3.25; C 3.37; L 3.74
T60: H 3.66; P 3.52; V 3.31; Q 3.55; F 3.32; L 3.72; Y 3.43; M 3.44; S 3.6; C 3.43; K 3.72; R 3.68; A 3.63; W 3.58; I 3.58; D 3.42; E 3.61
E59: R 3.06; Q 3.11; S 3.05; Y 3.82; P 2.47; N 2.91; V 3.68; T 3.12; W 3.37
